Measured values as given in article PMC6660512.

Tests used:
[1] = molecular target: Nogo-A Δ20 (Rattus norvegicus) (UniProt Q9JK11); conditions: cited from earlier work
[2] = molecular target: His-tagged Nogo-A-Δ20; assay: MST; Nanotemper Monolith NT.115, as described in ref. 29; SPARC and Nogo-A-Δ20 (Suppl. Figure 4m)

UniProt Q9JK11, sequence (Q9JK11 544-725, stated change not applied): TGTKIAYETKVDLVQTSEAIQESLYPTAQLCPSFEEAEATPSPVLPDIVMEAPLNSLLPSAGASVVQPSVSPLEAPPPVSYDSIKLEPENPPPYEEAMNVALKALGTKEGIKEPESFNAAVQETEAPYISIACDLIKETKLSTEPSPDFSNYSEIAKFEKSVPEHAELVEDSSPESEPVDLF

S1PR2 (from UniProt O95136)
Kd [1]: 280 nM

B1: SPARC (construct used for microscale thermophoresis not stated) (natural protein)
chain: APQQEALPDETEVVEETVAEVTEVSVGANPVQVEVGEFDDGAEETEEEVVAENPCQNHHCKHGKVCELDENNTPMCVCQDPTSCPAPIGEFEKVCSNDNKTFDSSCHFFATKCTLEGTKKGHKLHLDYIGPCKYIPPCLDSELTEFPLRMRDWLKNVLVTLYERDEDNNLLTEKQKLRVKKIHENEKRLEAGDHPVELLARDFEKNYNMYIFPVHWQFGQLDQHPIDGYLSHTELAPLRAPLIPMEHCTTRFFETCDLDNDKYIALDEWAGCFGIKQKDIDKDLVI
Kd [2]: 150 nM
